In assay [1] the test system is DIG-myoglobin. The assay can be described thus: SPR binding to mono-digoxigenated protein DIG-myoglobin. The procedure:
Further SPR studies were performed in which the binding affinity of the humanized <DIG>-IgG, IGF1R-DIG and the murine <DIG>M-19-11 was compared in binding to a mono-digoxigenated protein DIG-myoglobin.

The target in assay [2] is digoxigenated nucleic acids (siRNA-Dig). Description: SPR (Biacore) binding to digoxigenated nucleic acids. As to conditions: 25° C., read-out: Kd towards digoxigenated nucleic acids (siRNA-Dig). The procedure:
For that, binding properties of the recombinant <Dig> derivatives were analyzed by surface plasmon resonance (SPR) technology using a Biacore T100 or Biacore 3000 instrument (GE Healthcare Bio-Sciences AB, Uppsala). This system is well established for the study of molecule interactions. It allows a continuous real-time monitoring of ligand/analyte bindings and thus the determination of association rate constants (ka), dissociation rate constants (kd), and equilibrium constants (KD) in various assay settings. SPR-technology is based on the measurement of the refractive index close to the surface of a gold coated biosensor chip. Changes in the refractive index indicate mass changes on the surface caused by the interaction of immobilized ligand with analyte injected in solution. […]
Anti-mouse IgG antibody was immobilized on the surface of a CM5 biosensor chip in the same fashion as described above. […] The samples to be analyzed were diluted in HBS-P (10 mM HEPES, pH 7.4, 150 mM NaCl, 0.005% Surfactant P20) and injected at a flow rate of 5 μl/min. […] Signals were detected at a rate of one signal per second. […]
Anti-mouse and anti-human IgG antibodies were immobilized on the surface of a CM5 biosensor chip in the same fashion as described above. The samples to be analyzed were diluted in HBS-P and injected at a flow rate of 5 μl/min. […]

B1: murine DIG-IgG 19-11: monoclonal murine <Dig> IgG1 kappa antibody from hybridoma clone 19-11 (antibody, V domains shown)
VH: EVQLVESGGGLVKPGGSLKLSCAVSGFTFSDYAMSWIRQTPENRLEWVASINIGATYAYYPDSVKGRFTISRDNAKNTLFLQMSSLGSEDTAMYYCARPGSPYEYDKAYYSMAYWGPGTSVTVSS
VL: DVQMTQSTSSLSASLGDRVTISCRASQDIKNYLNWYQQKPGGTVKLLIYYSSTLLSGVPSRFSGRGSGTDFSLTITNLEREDIATYFCQQSITLPPTFGGGTKLEIK
In the case of B1, the “affinity to DIG-Myo compared with the humanized derivatives” value in assay [1] is on record as “clearly better”. Moreover, the Kd in assay [2] was determined as 0.269 nM.

B2: humanized DIG-IgG: humanized IgG with the binding specificity of murine <Dig> 19-11 (antibody, V domains shown)
VH: QVQLVESGGGLVKPGGSLRLSCAASGFTFSDYAMSWIRQAPGKGLEWVSSINIGATYIYYADSVKGRFTISRDNAKNSLYLQMNSLRAEDTAVYYCARPGSPYEYDKAYYSMAYWGQGTTVTVSS
VL: DIQMTQSPSSLSASVGDRVTITCRASQDIKNYLNWYQQKPGKAPKLLIYYSSTLLSGVPSRFSGSGSGTDFTLTISSLQPEDFATYYCQQSITLPPTFGGGTKVEIKR
In the case of B2, the Kd in assay [2] worked out at 12 nM.

Source of the values: patent US20130280279A1, “PHARMACEUTICAL COMPOSITION OF A COMPLEX OF AN ANTI-DIG ANTIBODY AND DIGOXIGENIN THAT IS CONJUGATED TO A PEPTIDE” (HOFFMANN-LA ROCHE INC., priority 2011, published 2013).
